According to US20260242417A1:

Biological target: Patched

“Recombinant mouse Sonic HedgeHog (mShh) (from UniProt Q62226) (ligand)” showed a Mean luminescence intensity (Gli-luciferase reporter, NIH3T3 cells) (luminescence intensity) of 6460.
